From the nanobody polyreactivity screen of Harvey et al. (2022)

Test: yeast display, Sf9 membrane polyspecificity reagent, FACS + sequencing; frameworks hold sequencing errors
In short: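 In a synthetic yeast display library (Saccharomyces cerevisiae BJ5465), nanobody expression was induced with galactose for 36–48 hours. FACS gates were set low and high (top ~1%) using anti-HA fluorescence for expression and streptavidin fluorescence for binding of the Sf9 membrane reagent. Each polyreactivity label is drawn from the gate of origin.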

Row | Sequence | polyreactivity (PSR sort gate)
1 | QVQLVESGGGLFQAGGSLRLSSAASGRIIRRNAMGWYRQAPGKEWDLDAAITSSGGNTYYADSVKGRFTISRDNAKNTVYLQMNSLKPEDSAVYYCATYPGNWDLDYWGQGTQVTVSS | high polyreactivity
2 | QVQLEESGGGLVQAGGSLRLSCAATGRIFSYAMGWYRQAPGKETELVAGISRSGGSTYYADSVKGRFTISSDNAKITVYLQMNSVKPEDTAVYYCARYDRGGRHYYYWGQGTQVTVSS | high polyreactivity
3 | QVQLVESGGGLVQAGGSLRLTCAASGSIFGLYAMGWYRHAPGKERELVAAISRTGGSTYYADSVKGRFTISRDNAKNTVYLQMNSLKPEDTAVYSCNAVYFRYRYNYWGQGTQVTVSS | high polyreactivity
4 | QVQLVESGGGLVQAGGSLRLSCAASGYTFPLYAMGWSRQAPGKEREFVAAISKRSGTTYYADSVKGRFTISRDNAKNTVYLQMNSLKPEDTAVYYCAASNGYQAVTYDYWGQGTQVTVSS | high polyreactivity
5 | QVQLVESGGGLVQAGGSLRLSCAASGSTFRLNAMGRYRQAPGKERELVAAISRSTGTTHYADSVKGRFTISRDNAKNTVYLQMKSLKPEDTAVYYCATDRAKWHKNGDLGYWGQGTQVTVSS | low polyreactivity
6 | QVQLVESGGGLVQAGGSLRLSCAASGRIFIENAMGWYRQAPGKERELVAAISGSGGRTYYADSVKGRFTISRDNAKNTVYLQMNSLKPEDTAVYYCAAVLRTQPRRYDYWGQGTQVTVSS | high polyreactivity
7 | QVQLEESGVGLVQAGGSLRLSCAASGRTFHIYAMGWYRQAPGKERELVADIRGRSGSTYYADSVKGRFTISRDNAKITVYLQMNSLKPEDTAVYYCAVGRYPYCSARYRFDYWGQGTQVSVSS | high polyreactivity
8 | QVQLVESGGGLVQAGGSLRLSCAASGSIFIIYAMGWYRQAPGKERALVAAISRGGTSTYADSVKGRFTISRDNAKNTVYLQMNSLKPEDTAVYYCNARRSSRTNRYNYWGQGTQVTVSS | high polyreactivity
9 | QVQLVESGGGLVQAGGSLRLSCAASGSIFGWYAMGWYRQAPGKERELVAAISSSDGSTYYADSVKGRFTISRDNAKNTVYLQMNSLKPEDTAVYYCATDSAFTYAQYDYWGQGTQVTVSS | low polyreactivity
10 | QVQLVESGGGLVQAGGSLRLSCDASGSIFRGNAMGWYRQAPGKERELVATITNGGSTNYADSVKGRFTISRDNAKNTVYLQMNSLKPEDTAVYYCNADHSYHIASTRHVDYWGQGTQVTVSS | low polyreactivity
11 | QVQLVESGGGLVQAGGSLRLSCAASGSTSQPYAMGWYRQAPGKERELVASITNGGITYYADSVKGRFTISRDNAKNTVYLQMNSLKPEDTAVYYCNADNVFEGYDRRSARASYRYYYWGQGTQVTVSS | low polyreactivity
12 | QVQLVESGGGLVQAGRSLRLSCAASGSTFPWYTMGWYRQAPGKERELVAAIDGSAGDTYYADSVKGRFTISRDNAKNTVYLQMNSLKPEDTAVYYCATRTSRWGYLHYDYWGQGTQVTVSS | low polyreactivity
13 | QVQLVESGGGLVQAGGSLRLSCAASGSNFNYYTMGWYRQAPGKERELVAAISYRGGRTYYADSVKGRFTISRDTSKNTVYLQMNSLKPEDTAVYYCNAVTRIYEVDYWGQGTQVTVSS | high polyreactivity
14 | QVQLVESGGGLVQAGGSLRLSCAASGNTLTPYTMGWYRQAPGKERELVAAINRSGGSTYYADSVKGRVTISRDNGKNTVYLQMNSLKPEDTAVYYCAAFGYYNFGYYYWGQGSQVTVSS | high polyreactivity
15 | QVQLVESGGGLVQAGGSLRLSCAASGRIIRGNAMGWYRQAPGKERELVAAISVRGGNTRYADSVKGRFTISRDNAKNSVYLQMNSLKPEDTAVYFCKKRSYLPEMEYWGQGSQVTVSS | low polyreactivity
16 | QVQLVESGGGLVQAGGSLRLSCAASGSTFGRYAMGWYRPAPGKGRELDGAISRRGGSTYYADSVKGRFTISRDYAMKTVYFQMHSLKPEDTAVYDCATGYPIELGREFDYWGQGIQVTVSS | high polyreactivity
17 | QVQLVESGGGLVQAGGSLRLSCAASGSTFYSYAMGWYRQAPGKERELVAAIDWSGDNTNYADSVKGRFTISRDNAKNTVYLQMNSLKPEDTAVYYCAADWYYTRRRYNYWGQGTQVTVSS | low polyreactivity
18 | QVRLVESGGGLVQAGGSLRLSCAASGRIFQYYAMGWYRQAPGKERELVASITSGGGSTYYADSVKGRFTISRDNAKNTVYVQMNSLKPEDSAVYYCAVDIYNYSNVHYYYWGQGTQVTVSS | low polyreactivity
19 | QVQLVDSGGGLVQAGGSLRLSCAATGTIFAAYVMGWYRQAPGKERELVAAISYSGGGTYYADSVNGRFTISRDNAKNTVYIQMNSLKPEDTAVYYCAADFGVFKSARYYYWGQGTQVTVSS | low polyreactivity
20 | QVHLVESGGGLVQAGGSLRLSCAAYGRIFKNYAMGWYRQAPGKESELVAAISWSGGRTYYADSVKGRFTISRDNAKNTVYLQMNSLKPEDTAVYYCATAARRGTSSIEPFGYGSWGQGTQVTVSS | high polyreactivity
21 | QVQLEESGGGLVKEGGSLRLSCAASGSIFPINAMGWYRQAPGKERELVAAINGSGSTKYADSVKGRFTISRDNAKNTVYLQMNSLKPEDTAVYYCSTRGLRWAKYGYWGQVTQVTVSS | high polyreactivity
